Source: US20220185908A1
Read-outs that look alike come from different tables or passages of the source.

Experiments:
[1] = molecular target: CD38 on cells (Raji, Daudi, REH, CD38-transfected HEK293) (human) (UniProt P28907); assay: flow cytometry, Raji cells; top asymptote fixed at about the maximum response of Darzalex
[2] = molecular target: CD38 on cells (Raji, Daudi, REH, CD38-transfected HEK293) (human) (UniProt P28907); assay: flow cytometry, Raji cells expressing CD19 and CD38
[3] = molecular target: CD38 on cells (Raji, Daudi, REH, CD38-transfected HEK293) (human) (UniProt P28907); assay: as above; remark: listed apart in the source

Adjusted EC50 [1]: 1.27 nM
EC50 [2]: 1.27 nM
EC50 [3]: 0.195 µg/mL
Max MFI [3]: 4.02e+06 MFI
Substance: Darzalex ® (CD38 control) (antibody)
